To fix the notation:
B1: Shugoshin-1 (Schizosaccharomyces pombe (strain ATCC 38366 / 972)), Q9P7A0 (parent)
chain: MNFQFINSNINNEDKLPMESLKKKFLKQNREIIKINTQLSIKIRESENEIQDLIQENFTLKSYLVKLEARFRNQSQTEDLLKNFFPEIQTIHKKISQVQSLLKIIEKKCSSDFLEANVKSQFTTCENKDSKEDYQILHNKRLEYVSFNDELKSLETGQPLYCFQDFQKKVHGPPALSEKPGKCILKDKTNAHVNKIPQDEVNYSLPQKNITIFSKELKENEFESINEGETEEEKAKTSNVCVCIPCKSAEQITDLKGQATGDSSPCDFEESQPRINGREKLRRSVKVINYAIPSLRTKLRRDFDLPSDRKRKRHPRGKA
partner: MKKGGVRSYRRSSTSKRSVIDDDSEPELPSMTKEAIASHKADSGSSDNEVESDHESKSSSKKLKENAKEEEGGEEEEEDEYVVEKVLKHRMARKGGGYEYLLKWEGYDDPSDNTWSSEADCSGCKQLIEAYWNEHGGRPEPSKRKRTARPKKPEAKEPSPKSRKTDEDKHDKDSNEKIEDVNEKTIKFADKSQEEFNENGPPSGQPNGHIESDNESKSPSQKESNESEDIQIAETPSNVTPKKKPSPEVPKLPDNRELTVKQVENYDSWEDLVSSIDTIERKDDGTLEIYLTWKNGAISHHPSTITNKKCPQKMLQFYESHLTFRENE
B2: Chromatin-associated protein swi6 (Schizosaccharomyces pombe (strain ATCC 38366 / 972)), P40381 (parent)
chain: B1 partner
partner: B1 chain

The variants in the first assay derive from B1. Conditions: with swi6_schpo swi6, P40381.
For MNFQFINSNINNEDKLPMESLKKKFLKQNREIIKINTQLSIKIRESENEIQDLIQENFTLKSYLVKLEARFRNQSQTEDLLKNFFPEIQTIHKKISQVQSLLKIIEKKCSSDFLEANVKSQFTTCENKDSKEDYQILHNKRLEYVSFNDELKSLETGQPLYCFQDFQKKVHGPPALSEKPGKCILKDKTNAHVNKIPQDEVNYSLPQKNITIFSKELKENEFESINEGETEEEKAKTSNVCECIPCKSAEQITDLKGQATGDSSPCDFEESQPRINGREKLRRSVKVINYAIPSLRTKLRRDFDLPSDRKRKRHPRGKA [V242E], the “effect of a mutation on the interaction” value was “disrupting interaction strength”.

A further assay covers variants of B2. The note with it: with sgo1_schpo sgo1, Q9P7A0.
MKKGGVRSYRRSSTSKRSVIDDDSEPELPSMTKEAIASHKADSGSSDNEVESDHESKSSSKKLKENAKEEEGGEEEEEDEYVVEKVLKHRMARKGGGYEYLLKWEGYDDPSDNTWSSEADCSGCKQLIEAYWNEHGGRPEPSKRKRTARPKKPEAKEPSPKSRKTDEDKHDKDSNEKIEDVNEKTIKFADKSQEEFNENGPPSGQPNGHIESDNESKSPSQKESNESEDIQIAETPSNVTPKKKPSPEVPKLPDNRELTVKQVENYDSWEDLVSSIDTIERKDDGTLEIYLTWKNGAISHHPSTITNKKCPQKMLQFYESHLTARENE [F324A]: the “effect of a mutation on the interaction” value is on record as “disrupting interaction strength”.

The values above are taken from IntAct's records for PubMed 18716626.
